This is an account of results in US20080064048A1, “Methods for Selecting Proteins that are Readily Presented as Antigens on Dendritic Cells” (Medical and Biological Laboratories, Co., Ltd., priority 2004, published 2008).

Where only a bound is given, the exact number is not on record here.

One series has as its target T1, VCP (Mus musculus, UniProt Q01853).
T1 construct: endogenous in cells; host or cells: DC2.4 mouse dendritic cell line; bone marrow-derived dendritic cells
Briefly: Co-immunoprecipitation of bOVA with anti-VCP. The format is binding. On the procedure: (§1) 2×10^7 DC2.4 or BMDC cells were cultured for four hours in a medium containing 10 μM MG-132 in the presence of bOVA at 250 μg mL^−1. Cells were lysed in 20 mM HEPES pH7.6 containing 1% digitonin and protease inhibitors to collect biotin-labeled samples. The samples were cleared of impurities in advance using protein G sepharose (Amersham Pharmacia Biotech), and after incubation with antibodies for precipitation (anti-Sec61β, anti Sec61α, anti-VCP, anti-BiP, anti-PDI, anti-calreticulin, anti-TAP1, and anti-TAP2), the immunoprecipitates were collected using protein G. When chicken anti-CHIP antibody was used, immunoprecipitates were collected using a rabbit anti-IgY column (a person, MBL). The precipitated samples were analyzed by SDS-PAGE and Western blotting.

The next series has as its target T2, CHIP (Mus musculus, UniProt Q9WUD1).
T2 construct: endogenous in cells; host or cells: DC2.4 mouse dendritic cell line
T2 sequence (Q9WUD1 1-304): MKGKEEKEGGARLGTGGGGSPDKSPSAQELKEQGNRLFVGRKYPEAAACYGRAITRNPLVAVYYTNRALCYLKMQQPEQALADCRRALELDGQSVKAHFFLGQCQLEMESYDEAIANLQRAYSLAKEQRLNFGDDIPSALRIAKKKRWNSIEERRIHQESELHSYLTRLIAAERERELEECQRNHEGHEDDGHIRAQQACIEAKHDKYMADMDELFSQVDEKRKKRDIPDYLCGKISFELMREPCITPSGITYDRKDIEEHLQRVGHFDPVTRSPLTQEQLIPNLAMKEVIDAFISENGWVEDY
Briefly: Co-immunoprecipitation of bOVA with anti-CHIP. The note with it: DC2.4 cells incubated with bOVA. The format is binding. Here is the method: as §1

The test system of the next series is OT-I CD8+ T cells. Briefly: Antigen presentation level: IL-2 production by OT-I CD8+ T cells (ELISA). Format: cell-based, mouse. The following applies: DC2.4, dose-response OVA vs bOVA. From the text:
Whether knock-down of cellular components involved in ERAD decreases the cross-presentation of exogenous OVA antigen was examined using a system for evaluating the level of antigen presentation, which uses naive CD8^+ T cells from OT-I mice and DC2.4 cells. The DC2.4 cells used as a model of dendritic cells are of the H-2 Kb mouse MHC class I haplotype. OT-I (H-2 Kb) mice are transgenic mice expressing a T cell receptor (TCRα and β) that recognizes an antigenic peptide (SIINFEKL) (SEQ ID NO: 15) derived from OVA presented on the H-2 Kb molecules. The CD8^+ cells of OT-I mice are activated when they recognize OVA peptides presented by BMDCs derived from H-2 Kb mice or by DC2.4 cells. When OVA or bOVA is incubated with and affixed onto DC2.4 cells and the cells are further incubated with naive CD8^+ T cells of OT-I mice, the amount of IL-2 produced by OT-I CD8^+ T cells serves as an index of T-cell stimulation as a result of OVA antigen presented by DC2.4 cells.
Parental or knocked-down DC2.4 cells were pre-incubated in a culture medium supplemented with 50 μg mL^−1 polymyxin B for 30 minutes in the presence or absence of lactacystin or MG-132, and incubated with OVA (250 μg mL^−1) or SIINFEKL (SEQ ID NO: 15) peptides (10 ng mL^−1) for six hours. The cells were washed, fixed with 1% paraformaldehyde, and aliquoted into microtiter plates (5×10^4 per well). 5×10^4 CD8^+ T cells purified from splenocytes of OT-1 mice using magnetic beads were added to each well and after a 24-hour incubation, the IL-2 secretion was measured by ELISA (BD Biosciences) in triplicate. […]

The next series concerns the target T3, BiP (Mus musculus, UniProt P20029).
T3 construct: BiP, an endogenous ER protein, was detected in the same microsomal fraction; endogenous in cells; host or cells: DC2.4 mouse dendritic cell line
Briefly: Co-immunoprecipitation of bOVA with anti-BiP. The format is binding. The note with it: DC2.4 cells incubated with bOVA. On the procedure: as §1

T1 sequence (Q01853 2-806 limits assumed): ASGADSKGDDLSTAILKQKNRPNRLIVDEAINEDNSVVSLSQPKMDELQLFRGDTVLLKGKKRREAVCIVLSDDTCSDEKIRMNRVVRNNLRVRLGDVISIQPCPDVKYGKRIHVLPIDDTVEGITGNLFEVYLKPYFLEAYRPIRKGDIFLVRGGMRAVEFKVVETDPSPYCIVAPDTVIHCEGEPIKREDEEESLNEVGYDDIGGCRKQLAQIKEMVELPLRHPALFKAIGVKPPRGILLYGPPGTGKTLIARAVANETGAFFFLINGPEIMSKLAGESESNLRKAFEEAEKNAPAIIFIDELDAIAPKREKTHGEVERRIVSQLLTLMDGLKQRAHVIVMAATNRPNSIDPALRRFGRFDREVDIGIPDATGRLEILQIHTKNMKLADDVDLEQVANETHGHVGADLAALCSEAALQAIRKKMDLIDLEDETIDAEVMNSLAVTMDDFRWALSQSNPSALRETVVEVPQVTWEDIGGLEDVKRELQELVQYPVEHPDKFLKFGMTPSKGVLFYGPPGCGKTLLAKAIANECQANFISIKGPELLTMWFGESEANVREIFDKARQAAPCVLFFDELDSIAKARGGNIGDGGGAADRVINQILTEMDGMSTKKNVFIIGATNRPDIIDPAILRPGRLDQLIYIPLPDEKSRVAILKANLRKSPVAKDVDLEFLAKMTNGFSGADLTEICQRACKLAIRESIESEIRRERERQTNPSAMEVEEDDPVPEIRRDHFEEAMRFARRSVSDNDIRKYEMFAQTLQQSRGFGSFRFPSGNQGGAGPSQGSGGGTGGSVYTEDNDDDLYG
T3 sequence (P20029 20-655): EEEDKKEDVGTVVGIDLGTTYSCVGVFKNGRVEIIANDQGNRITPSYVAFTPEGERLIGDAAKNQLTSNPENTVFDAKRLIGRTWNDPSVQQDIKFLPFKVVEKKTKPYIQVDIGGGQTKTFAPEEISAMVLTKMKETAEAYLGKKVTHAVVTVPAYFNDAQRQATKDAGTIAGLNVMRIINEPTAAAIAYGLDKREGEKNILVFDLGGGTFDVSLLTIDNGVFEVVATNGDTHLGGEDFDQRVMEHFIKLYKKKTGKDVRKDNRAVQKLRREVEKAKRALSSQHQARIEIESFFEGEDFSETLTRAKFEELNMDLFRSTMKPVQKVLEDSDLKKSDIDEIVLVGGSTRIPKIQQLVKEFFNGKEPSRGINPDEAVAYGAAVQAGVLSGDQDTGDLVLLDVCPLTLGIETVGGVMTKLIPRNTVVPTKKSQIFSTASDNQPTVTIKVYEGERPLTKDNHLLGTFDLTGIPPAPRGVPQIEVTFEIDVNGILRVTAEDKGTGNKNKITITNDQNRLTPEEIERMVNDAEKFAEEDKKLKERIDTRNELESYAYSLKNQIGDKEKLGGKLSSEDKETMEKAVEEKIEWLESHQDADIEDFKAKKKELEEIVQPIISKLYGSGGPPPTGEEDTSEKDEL
Method for DC2.4 cells: Intracellular localization of foreign antigens was examined by cell fractionation methods. Chicken ovalbumin (OVA) was used as an antigen model, and DC2.4 (haplotype H-2 Kb), a cultured cell line of mouse dendritic cells, was used as a model for dendritic cells. […] BMDCs with a haplotype of H-2 Kb, the same as that of DC2.4, were used as the control. BMDCs were induced from the bone marrow cells of C57BL/6 mice (SLC) in RPMI-1640 supplemented with 5% FCS using 5 ng/mL GM-CSF (MBL), and those cells purified by magnetic beads after five days of culturing were used.
DC2.4 cells made to take up bOVA antigens were suspended in 10 mM Tris-HCl (pH7.4) containing 250 mM sucrose, this was homogenized using glass beads, centrifuged for 30 minutes at 250,000×g, and then fractionated. The supernatant was used as the soluble fraction; the precipitates were suspended in the same buffer as described above and used as the microsomal fraction. A fixed amount was incubated in the presence or absence of 1% TritonX-100, and together with or without 100 μg mL^−1 trypsin. Before collecting bOVA, soybean trypsin inhibitor (Sigma) was added at 500 μg mL^−1.

B1: bOVA: biotin-labeled OVA antigen (protein)
chain: GSIGAASMEFCFDVFKELKVHHANENIFYCPIAIMSALAMVYLGAKDSTRTQINKVVRFDKLPGFGDSIEAQCGTSVNVHSSLRDILNQITKPNDVYSFSLASRLYAEERYPILPEYLQCVKELYRGGLEPINFQTAADQARELINSWVESQTNGIIRNVLQPSSVDSQTAMVLVNAIVFKGLWEKAFKDEDTQAMPFRVTEQESKPVQMMYQIGLFRVASMASEKMKILELPFASGTMSMLVLLPDEVSGLEQLESIINFEKLTEWTSSNVMEERKIKVYLPRMKMEEKYNLTSVLMAMGITDVFSSSANLSGISSAESLKISQAVHAAHAEINEAGREVVGSAEAGVDAASVSEEFRADHPFLFCIKHIATNAVLFFGRCVSP
With B1, in the series on DC2.4 cells, the “bOVA taken up by cells recovered as trypsin-resistant bOVA from the microsomal fraction” value was at least 70%. Further, the “interaction with VCP (co-immunoprecipitation)” value with VCP (BMDCs) and in the series with VCP (DC2.4 cells incubated with bOVA) was “interacts” each time. Further, the “interaction with CHIP (co-immunoprecipitation)” value with CHIP was “interacts”. The “antigenicity for stimulation of CD8+ OT-I T cells (IL-2 production)” value in the series with OT-I CD8+ T cells is “equally antigenic”. Also, the “interaction with BiP (co-immunoprecipitation)” value with BiP is reported as “interacts”.
